From US20230061838A1 (SORRENTO THERAPEUTICS, published 2023)

Biological target: T1, CD20 antigen (UniProtKB P11836 - gene MS4A1), on Daudi cells (Homo sapiens, UniProt P11836 1-297)
T1 sequence: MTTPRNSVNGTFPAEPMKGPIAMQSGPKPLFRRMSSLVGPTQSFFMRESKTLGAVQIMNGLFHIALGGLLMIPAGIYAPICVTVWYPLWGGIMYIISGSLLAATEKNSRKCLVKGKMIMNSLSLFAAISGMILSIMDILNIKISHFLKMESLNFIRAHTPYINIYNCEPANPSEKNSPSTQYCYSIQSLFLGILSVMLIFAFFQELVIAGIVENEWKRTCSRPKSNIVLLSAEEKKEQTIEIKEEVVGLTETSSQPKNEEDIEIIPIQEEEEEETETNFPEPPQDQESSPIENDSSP
Experiment: cell-based or functional assay

B1: anti-CD20 dimeric antigen receptor (CD20 DAR), expressed on primary human T cells (other)
heavy: QVQLQQPGAELVKPGASVKMSCKASGYTFTSYNMHWVKQTPGRGLEWIGAIYPGNGDTSYNQKFKGKATLTADKSSSTAYMQLSSLTSEDSAVYYCARSTYYGGDWYFNVWGAGTTVTVSAASTKGPSVFPLAPSSKSTSGGTAALGCLVKDYFPEPVTVSWNSGALTSGVHTFPAVLQSSGLYSLSSVVTVPSSSLGTQTYICNVNHKPSNTKVDKRVEPKSCDKTHTPRKIEVMYPPPYLDNEKSNGTIIHVKGKHLCPSPLFPGPSKPFWVLVVVGGVLACYSLLVTVAFIIFWVKRGRKKLLYIFKQPFMRPVQTTQEEDGCSCRFPEEEEGGCELRVKFSRSADKGERRRGKGHDGLYQGLSTATKDTYDALHMQALPPR
light: QIVLSQSPAILSASPGEKVTMTCRASSSVSYIHWFQQKPGSSPKPWIYATSNLASGVPVRFSGSGSGTSYSLTISRVEAEDAATYYCQQWTSNPPTFGGGTKLEIKRTVAAPSVFIFPPSDEQLKSGTASVVCLLNNFYPREAKVQWKVDNALQSGNSQESVTEQDSKDSTYSLSSTLTLSKADYEKHKVYACEVTHQGLSSPVTKSFNRGEC
In the case of B1, the “fold-change of expansion over four days of co-culture” value is reported as greater than 10 fold.
